# Target: α1-subunit of steroid C-25 dehydrogenase 1 (S25DH1), recombinant from Thauera aromatica K172 (Sterolibacterium denitrificans)
# Experiment: co-purification (ion exchange and dye-affinity chromatography, SDS-PAGE); nontagged subunits coproduced in T. aromatica K172; soluble extract, anaerobic DEAE-Sepharose then Reactive Red 120, active fractions followed; SDS-PAGE, bands of S25DH1 identified by ESI-QTOF-MS of tryptic digests
# α1-subunit of steroid C-25 dehydrogenase 1 (S25DH1), recombinant from Thauera aromatica K172 (Sterolibacterium denitrificans), sequence (main, as listed by the source): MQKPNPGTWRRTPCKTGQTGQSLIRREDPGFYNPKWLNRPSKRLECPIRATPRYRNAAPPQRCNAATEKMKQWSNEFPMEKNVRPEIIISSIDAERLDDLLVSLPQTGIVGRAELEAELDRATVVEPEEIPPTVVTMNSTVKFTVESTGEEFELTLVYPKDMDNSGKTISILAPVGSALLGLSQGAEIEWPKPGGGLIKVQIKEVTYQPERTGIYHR
row,Substance,stoichiometry N
1,"γ3-subunit of steroid C-25 dehydrogenase, recombinant from Thauera aromatica K172 (natural protein)",1 γ3 per α1
2,"β3-subunit of steroid C-25 dehydrogenase, recombinant from Thauera aromatica K172 (natural protein)",1 β3 per α1

# — paper PMC6016249
